Measurements reported in PMC6606808.

Molecular target: Acinetobacter baumannii AdeB multidrug efflux pump (Acinetobacter baumannii AB0057)
Experiment: cryo-EM structure; single-particle cryo-EM of purified AdeB reconstituted in lipidic nanodiscs (MSP 1E3D1, E. coli total extract lipid); 20 mM Tris-HCl pH 7.5, 100 mM NaCl; no substrate; C3 symmetry; 2.98 Å

Work on “Acinetobacter baumannii AdeB multidrug efflux pump (natural protein)” yielded a stoichiometry N of 3.
